Laboratory results as given in paper PMC5543128.

Molecular target: T1, FAM-αC-conotoxin PrXA (Conus parius, UniProt P0C8S5 52-83)
T1 chain: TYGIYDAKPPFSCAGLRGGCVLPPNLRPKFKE
Test: fluorescence anisotropy; no anisotropy change
Settings: tags: 5,6-carboxyfluorescein (FAM)

B1: S1 scramble (ssDNA)
DNA: GCCTGTTGTGAGCCTCCTGTCGAAGGGGATGGACCCCTACTTCATTCGCCCGCCTTGAGCGTTTATTCTTGTCTCCC
- binding result: no binding
